What is called EC50 is the concentration at which the effect is half-maximal. The low end stands for a more potent agent, the high end for a less potent agent. What is called Kd is a measure of binding affinity in units of concentration. A low value points to a tighter complex. As usually defined, the koff is the first-order rate constant of dissociation. Lower therefore signals a long-lived complex. A word on the kon: it is the rate constant with which the complex forms. Low values mean slower complex formation, high ones faster complex formation.

Assay [1] addresses human B7-H3 expressed on A375 tumor cells (human) (UniProt Q5ZPR3). Put plainly: flow cytometry on A375 cells, MFI(647); unit from the axis Conc (nM); fit value of a flat control curve. For orientation: A flow cytometer gives signals particle by particle.
The target is the same in assay [2]. In words: flow cytometry on A375 cells, MFI(PE); unit from the axis Conc (nM); fit value of a flat control curve.
Assay [3] shares this target. Described as above. This is another data set of the same source.
Assay [4] shares this target. Described as above. The source holds these as a separate data set.
For assay [5] the target is unchanged. In words: flow cytometry on A375.S2 cells, MFI(647); unit from the axis Conc (nM); fit value of a flat control curve.
Assay [6] concerns the target human B7-H3 (4Ig) protein (his tag) (human) (UniProt Q5ZPR3). In words: SPR (Biacore T200), antibody captured on Protein A chip, B7-H3 injected, 1:1 model. In general terms: Surface plasmon resonance follows binding to a sensor surface in real time, without labels.
Assay [7] deals with human B7-H3 protein (human) (UniProt Q5ZPR3). Put plainly: Octet (BLI) epitope binning on captured human B7-H3; competitor AHP06345 (self). For orientation: In BLI a coated tip is dipped into the sample, and binding shifts an interference pattern.
Assay [8] shares this target. Put plainly: Octet (BLI) epitope binning on captured human B7-H3; competitor CA84D.
Assay [9] shares this target. Put plainly: Octet (BLI) epitope binning on captured human B7-H3; competitor AHP05562.
For assay [10], the target named is human B7-H3 expressed on A375 tumor cells (human) (UniProt Q5ZPR3). In words: flow cytometry on A375 cells, MFI(PE); unit from the axis Conc(nM).
For assay [11], the target named is human B7-H3 protein (human) (UniProt Q5ZPR3). Put plainly: Octet (BLI) epitope binning on captured human B7-H3; competitor AHP06345.
The target of assay [12] is human B7-H3 expressed on A375 tumor cells (human) (UniProt Q5ZPR3). Put plainly: flow cytometry on A375 cells, MFI(PE); unit from the axis Conc (nM).
Assay [13] shares this target. The description is as above. This is another data set of the same source.
The target is the same in assay [14]. Described as above. The source holds these as a separate data set.
For assay [15] the target is unchanged. Put plainly: flow cytometry on A375.S2 cells, MFI(647); unit from the axis Conc (nM).
Assay [16] shares this target. In words: flow cytometry on A375 cells, MFI(PE); unit from the axis Conc (nM). The source holds these as a separate data set.
The target is the same in assay [17]. Described as above. The source holds these as a separate data set.
The target is the same in assay [18]. Described as above. This is another data set of the same source.
Assay [19] concerns the target human B7-H3 protein (human) (UniProt Q5ZPR3). Put plainly: Octet (BLI) epitope binning on captured human B7-H3; competitor 72D1D11.
Assay [20] has as its target human B7-H3 expressed on A375 tumor cells (human) (UniProt Q5ZPR3). In words: flow cytometry on A375 cells, MFI(647); unit from the axis Conc (nM).

Regarding hIgG1 (antibody), the EC50 in assay [1] is 0.066 nM; in assay [2], 192 nM; in assay [3], 2.1 nM; in assay [4], 36 nM; in assay [5], 0.044 nM.

B1: AHP06345 (antibody, V domains shown)
VH: QVQLVQSGAEVKKPGESLRISCKGSGYSFTSYWISWVRQMPGKGLEWMGRIDPSDSYTNYSPSFQGHVTISADKSISTAYLQWSSLKASDTAMYYCARHTGYYGSGIGMDVWGQGTLVTVSS
VL: HVILTQPPSVSAAPGQKVTISCSGSSSNIGNNYVSWYRQLPGTAPKLLIYDNNQRPSGIPDRFSGSKSGTSATLGITGLQTGDEADYYCATWDSSLGVVVFGGRTKLTVL
In assay [6], B1 registered a Kd of 1.47 nM, a koff of 0.000254 s⁻¹ and an on-rate (kon) of 173000 M⁻¹ s⁻¹. In addition, in [7], the inhibition ratio came out at 91.8%. In addition, in assay [8], the inhibition ratio was -3.77%. The inhibition ratio in assay [9] was -6.36%. This molecule gave an EC50 in assay [10] of 2.7 nM.

B2: MGA017 (antibody, from a related filing, V domains shown)
VH: EVQLVESGGGLVKPGGSLRLSCAASGFTFSSYGMSWVRQAPGKGLEWVATINSGGSNTYYPDSLKGRFTISRDNAKNSLYLQMNSLRAEDTAVYYCARHDGGAMDYWGQGTTVTVSS
VL: DIQMTQSPSSLSASVGDRVTITCRASESIYSYLAWYQQKPGKAPKLLVYNTKTLPEGVPSRFSGSGSGTDFTLTISSLQPEDFATYYCQHHYGTPPWTFGQGTRLEIK
In turn, B2 had a Kd in [6] of 1.79 nM. Besides, the koff in assay [6] is 0.00132 s⁻¹. Moreover, the kon in [6] came to 737000 M⁻¹ s⁻¹. The inhibition ratio in assay [11] is -0.09%; in assay [8], 3.65%; in assay [9], 91.5%; in assay [19], 98.9%. Also, the EC50 is 0.28 nM in assay [12]; 0.22 nM in assay [13]; 0.19 nM in assay [14]; 0.37 nM in assay [15]; 0.3 nM in assay [16]; 0.34 nM in [17]. The EC50 in [10] was 0.15 nM; in assay [18] it was 0.26 nM; in assay [20] it was 0.41 nM.
